The record followed here is patent publication US20210269525A1.

Assay [1] concerns the target monkey CD3e (Macaca fascicularis) on PBMC (Macaca fascicularis) (UniProt Q95LI5). The experiment in a line: flow cytometry, Macaca fascicularis PBMC, negative control of unstated make-up.
The target of assay [2] is human CD3e (T-cell surface glycoprotein CD3 epsilon chain) (human) (UniProt P07766). The assay is described as follows: flow cytometry, human PBMC, negative control of unstated make-up.
The target in assay [3] is monkey CD3e (Macaca fascicularis) on PBMC (Macaca fascicularis) (UniProt Q95LI5). The experiment in a line: flow cytometry, Macaca fascicularis PBMC, control sample (Table 2: 1:400), AF647-anti-hIgG.
monkey CD3e (Macaca fascicularis) on PBMC (Macaca fascicularis), sequence (Q95LI5 22-198 limits assumed): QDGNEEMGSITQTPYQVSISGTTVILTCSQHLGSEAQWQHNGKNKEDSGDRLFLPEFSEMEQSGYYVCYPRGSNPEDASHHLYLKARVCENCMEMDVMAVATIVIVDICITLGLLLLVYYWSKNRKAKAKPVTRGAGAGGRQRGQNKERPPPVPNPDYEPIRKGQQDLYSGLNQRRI
In assay [4] the target is human CD3e (T-cell surface glycoprotein CD3 epsilon chain) (human) (UniProt P07766). The experiment in a line: flow cytometry, human PBMC of subject 2 (PBMC human2#), negative control, AF647-anti-mIgG, PerCP anti-hTcRβ. A general note: Flow cytometry measures light scatter and fluorescence of single cells or particles in a stream.
Assay [5] has the same target. The experiment in a line: flow cytometry, human PBMC of subject 1 (PBMC human1#), negative control, AF647-anti-mIgG, PerCP anti-hTcRβ.
The target in assay [6] is monkey CD3e (Macaca fascicularis) on PBMC (Macaca fascicularis) (UniProt Q95LI5). The experiment in a line: flow cytometry, Macaca fascicularis PBMC, control sample (Table 2: 1:400), AF647-anti-mIgG.

Regarding NC, the upper left quadrant, percent of cells AF647+ / hTcRβ-PerCP- in assay [1] worked out at 0.162%; in assay [2], 0.24%.

In the case of hIgG (antibody), in assay [3], the FL4-H, SSC-H subset (percent of cells in the AF647-positive gate) was determined as 3.27%.

With mIgG (antibody), the Q1, percent of cells AF647+ / hTcRβ-PerCP- in assay [4] is 0.0036%; in assay [5], 0.00361%. Besides, the Q2, percent of cells AF647+ / hTcRβ-PerCP+ came out at 0.21% in assay [4] and 0.19% in assay [5]. Further, in assay [6], the FL4-H, SSC-H subset (percent of cells in the AF647-positive gate) amounted to 0.58%.
